The chains are these.
B1: Strep-tagged SCOC(78-159) R99E (domain or fragment)
chain: not shown
notes: human SCOC, SwissProt entry Q9UIL1 isoform 1, residues 78-159, with R99E; linker between SCOC and the Strep-tag, as in the wild-type construct; also called R99E surface mutant; source: E. coli BL21 (DE3), purified (StrepTrap, Superdex 75); also co-expressed with FEZ1(227-290) in E. coli
B2: C-terminal Strep-tagged SCOC(78-159), wild type (domain or fragment)
chain: not shown
notes: human short coiled coil protein (SCOC), SwissProt entry Q9UIL1 isoform 1, residues 78-159; underlined stretch of the printed construct; linker between SCOC and the Strep-tag in the printed construct; Dimer by SEC-MALLS and native MS; also called short coiled coil protein; Strep-SCOC(78-159); source: E. coli BL21 (DE3), purified (StrepTrap, Superdex 75); also co-expressed with FEZ1(227-290) in E. …
B3: Strep-tagged SCOC(78-159) R117E (domain or fragment)
chain: not shown
notes: human SCOC, SwissProt entry Q9UIL1 isoform 1, residues 78-159, with R117E; linker between SCOC and the Strep-tag, as in the wild-type construct; also called R117E surface mutant; source: E. coli BL21 (DE3), purified (StrepTrap, Superdex 75); also co-expressed with FEZ1(227-290) in E. coli
B4: Strep-tagged SCOC(78-159) N125L/N132V (domain or fragment)
chain: not shown
notes: human SCOC, SwissProt entry Q9UIL1 isoform 1, residues 78-159, with N125L and N132V; linker between SCOC and the Strep-tag, as in the wild-type construct; Tetramer by SEC-MALLS and native MS; also called tetrameric core mutant; double core mutant N125L/N132V; source: E. coli BL21 (DE3), purified (StrepTrap, Superdex 75); also co-expressed with FEZ1(227-290) in E. coli
B5: Strep-tagged SCOC(78-159) E93V/K97L (domain or fragment, human)
chain: MAMMNADMDAVDAENQVVLEELTRLINQVLELQHTLEDLSARVDAVKEENLKLKSENQVLGQYIENLMSASSVFQTTDTKSKRKLVPRGS
notes: human SCOC, SwissProt entry Q9UIL1 isoform 1, residues 78-159, with E93V and K97L; linker between SCOC and the Strep-tag, as in the wild-type construct; Trimer by SEC-MALLS and native MS; also called trimeric SCOC mutant; double core mutant E93V/K97L; source: E. coli BL21 (DE3), purified (StrepTrap, Superdex 75); also co-expressed with FEZ1(227-290) in E. coli
B6: Selenomethionine-labelled Strep-tagged L105M SCOC(78-159) (domain or fragment)
chain: not shown
modifications: selenomethionine-labelled
notes: human SCOC, SwissProt entry Q9UIL1 isoform 1, residues 78-159, with L105M; linker between SCOC and the Strep-tag, as in the wild-type construct; Crystallised by in situ proteolysis with subtilisin (1:2000 w/w), so the chain in the crystal may be shorter; the final model comprises residues 86-147 and the Strep-tag is not visible in the electron density; also called L105M SCOC mutant; SCOC_(78-159) …

From PMC3788124, “Crystal Structure of the Human Short Coiled Coil Protein and Insights into SCOC-FEZ1 Complex Formation” (PLoS ONE, 2013) come the findings set out here.

What is called stoichiometry N is a count of units in the complex or per binding partner.

The first data set concerns the molecule itself. Briefly: SEC-MALLS; SCOC constructs alone; 500 µL of 1.5 mg/ml on Superdex 200 10/300 GL; three measurements for each protein.
As for B1, the “stoichiometry N” value came to 2. For the protein B2, the “stoichiometry N” value turned out to be 2. The same measure, in the same setting: as for B3, the figure is 2; as for B4, 4. The same measure, in the same setting: as for B5, the figure is 3.

Another data set concerns the molecule itself. The data set can be described thus: crystal structure; selenomethionine-labelled L105M SCOC(78-159), 3 mg/ml, with subtilisin 1:2000 (w/w) for in situ proteolysis; hanging drops, 20 °C, 100 mM sodium acetate pH 4.6, 0.7 M 1,6-hexanediol, 10 mM CoCl2.
In the case of B6, the binding result is on record as “binds”.
